The term stoichiometry N denotes a count of units in the complex or per binding partner.

Here are results for 2 molecules from paper PMC6202051, “The DWORF micropeptide enhances contractility and prevents heart failure in a mouse model of dilated cardiomyopathy” (eLife, 2018).

Ends that are not written are not given here. YFP = yellow fluorescent protein

In assay [1] the target is mCerulean (Cer)-SERCA2a (UniProt O55143). Put plainly: FRET or BRET; progressive acceptor photobleaching of YFP in live transfected AAV-293 cells; donor against acceptor fluorescence, a linear relationship taken as a 1:1 complex. For orientation: Bioluminescence resonance energy transfer reports proximity on the nanometre scale.
For assay [2], the target named is T1, mCerulean (Cer)-SERCA2a (UniProt O55143-2 1-998).
T1 construct: SERCA2a, the predominant cardiac isoform of the sarco(endo)plasmic reticulum Ca2+-ATPase; also called SR Ca2+-ATPase; source: AAV-293 cells, transiently transfected, in live cells
The assay is described as above. The note with it: partners not purified.

T1 sequence (O55143 other isoform, or with tags, fused parts or gaps): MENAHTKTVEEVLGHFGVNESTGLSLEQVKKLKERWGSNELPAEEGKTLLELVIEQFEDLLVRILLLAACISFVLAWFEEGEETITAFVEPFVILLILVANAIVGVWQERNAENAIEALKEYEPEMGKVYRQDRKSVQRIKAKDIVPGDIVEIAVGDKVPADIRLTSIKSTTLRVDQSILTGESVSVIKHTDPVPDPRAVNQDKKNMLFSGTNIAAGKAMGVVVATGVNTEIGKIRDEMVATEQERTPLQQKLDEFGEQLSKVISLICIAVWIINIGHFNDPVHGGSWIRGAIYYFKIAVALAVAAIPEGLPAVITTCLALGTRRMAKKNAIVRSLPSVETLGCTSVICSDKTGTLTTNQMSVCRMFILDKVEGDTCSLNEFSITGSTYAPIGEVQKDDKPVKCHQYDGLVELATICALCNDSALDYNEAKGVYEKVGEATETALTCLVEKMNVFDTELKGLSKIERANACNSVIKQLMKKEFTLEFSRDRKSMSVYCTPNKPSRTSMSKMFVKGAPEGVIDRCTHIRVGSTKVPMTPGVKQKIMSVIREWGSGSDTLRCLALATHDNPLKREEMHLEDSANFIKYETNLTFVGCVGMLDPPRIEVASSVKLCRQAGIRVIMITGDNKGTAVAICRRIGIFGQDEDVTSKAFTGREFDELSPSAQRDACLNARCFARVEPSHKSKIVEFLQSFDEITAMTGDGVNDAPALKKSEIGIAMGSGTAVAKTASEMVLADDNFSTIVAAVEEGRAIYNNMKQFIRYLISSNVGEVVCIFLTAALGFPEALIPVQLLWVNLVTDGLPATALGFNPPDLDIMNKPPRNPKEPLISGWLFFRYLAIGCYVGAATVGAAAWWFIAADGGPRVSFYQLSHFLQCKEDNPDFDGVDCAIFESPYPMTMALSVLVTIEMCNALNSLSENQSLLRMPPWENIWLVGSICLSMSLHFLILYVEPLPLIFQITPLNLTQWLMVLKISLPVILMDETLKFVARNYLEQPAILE
mCerulean (Cer)-SERCA2a (UniProt O55143), sequence (O55143 other isoform, or with tags, fused parts or gaps): as above

“yellow fluorescent protein (YFP)-DWORF (peptide)”: the stoichiometry N with mCerulean (Cer)-SERCA2a [1] was found to be 1.

B1: yellow fluorescent protein (YFP)-PLN (natural protein, UniProt P61014 1-52, looked up)
chain: {YFP}-MEKVQYLTRSAIRRASTIEMPQQARQNLQNLFINFCLILICLLLICIIVMLL
modifications: cysteine pairing not given here
notes: phospholamban (PLN); In the PLN-PLN and PLN-DWORF FRET experiments one partner must have carried the donor (Cer); it may be another species (e.g. canine) in the cited FRET work; also called phospholamban; source: AAV-293 cells, transiently transfected, in live cells
Regarding B1, the “stoichiometry N” value in the assay with mCerulean (Cer)-SERCA2a [2] was determined as 1.
